Non-standard residues stand in square brackets, D forms with d. 1Nal = N[C@@H](Cc1cccc2ccccc12)C(=O)O
B1: RINGPep1 analogue containing 3-(1-naphthyl)-L-alanine (peptide)
chain: cyclo(CF[1Nal]LYT)
B2: RINGPep2 (cyclo-CF-Cha-LYT) (peptide)
chain: CFXLYT
HELM: PEPTIDE1{C.F.[Cha].L.Y.T}$PEPTIDE1,PEPTIDE1,1:R1-6:R2$$$V2.0
SMILES: CC(C)C[C@@H]1NC(=O)[C@H](CC2CCCCC2)NC(=O)[C@H](Cc2ccccc2)NC(=O)[C@H](CS)NC(=O)[C@H]([C@@H](C)O)NC(=O)[C@H](Cc2ccc(O)cc2)NC1=O

Target: T1, Full length IDOL (1–445) (UniProt Q8WY64 1-445, NT-647-NHS dye (only the labelled copy in the MST assays))
T1 chain: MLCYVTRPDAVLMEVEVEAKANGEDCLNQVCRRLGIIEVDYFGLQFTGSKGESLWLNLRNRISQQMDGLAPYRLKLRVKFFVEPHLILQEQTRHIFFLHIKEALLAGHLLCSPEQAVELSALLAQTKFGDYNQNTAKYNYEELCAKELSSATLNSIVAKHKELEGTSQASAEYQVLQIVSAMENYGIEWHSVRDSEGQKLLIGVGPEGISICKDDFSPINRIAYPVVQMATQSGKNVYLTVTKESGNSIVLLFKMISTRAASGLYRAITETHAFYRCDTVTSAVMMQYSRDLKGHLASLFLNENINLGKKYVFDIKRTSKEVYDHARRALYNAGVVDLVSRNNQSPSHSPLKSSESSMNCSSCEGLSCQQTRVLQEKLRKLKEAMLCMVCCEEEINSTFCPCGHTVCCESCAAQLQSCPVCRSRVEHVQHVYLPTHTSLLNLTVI
Experiment: MST

| Binder | Kd |
| --- | --- |
| B1 | 6.3 µM |
| B2 | 6.6 µM |

Reference: publication PMC6050537 (2018)
